The values that follow come from the supplement of paper PMC9233669.

For one data set, the system named is biotinyl-Phe-oxazolone. Nature of the data set: self-aminoacylation, catalytic enhancement (BFO) (fold over background); higher = more active; k-Seq, kA / k0A0; sequences stand for … in GGGAAUGGAUCCACAUCUACGAAUUC…UUCACUGCAGACUUGACGAAGCUG
The method in brief:
(§1)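 Mutagenized RNA pools (0.43 μM; 21-nt variable region) were treated with 2–1250 μM of each biotinyl-aminoacyl-oxazolone. Conditions were 50 μL HEPES/NaCl/KCl/MgCl2/CaCl2 buffer, 5% acetonitrile, pH 6.9–7.0, room temperature, 90 minutes. Catalytic enhancement, the median kA relative to the uncatalyzed rate, was derived from streptavidin capture, qPCR and Illumina sequencing.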

A further data set relates to biotinyl-Ile-oxazolone. Put plainly: self-aminoacylation, catalytic enhancement (BIO) (fold over background); higher = more active; k-Seq, kA / k0A0; sequences stand for … in GGGAAUGGAUCCACAUCUACGAAUUC…UUCACUGCAGACUUGACGAAGCUG
An outline of the steps: as §1

The test system of the next data set is biotinyl-Met-oxazolone. Put plainly: self-aminoacylation, catalytic enhancement (BMO) (fold over background); higher = more active; k-Seq, kA / k0A0; sequences stand for … in GGGAAUGGAUCCACAUCUACGAAUUC…UUCACUGCAGACUUGACGAAGCUG
An outline of the steps:
as §1

In a further data set the test system is biotinyl-Val-oxazolone. Put plainly: self-aminoacylation, catalytic enhancement (BVO) (fold over background); higher = more active; k-Seq, kA / k0A0; sequences stand for … in GGGAAUGGAUCCACAUCUACGAAUUC…UUCACUGCAGACUUGACGAAGCUG
An outline of the steps:
as §1

In another data set the test system is biotinyl-Leu-oxazolone. Nature of the data set: self-aminoacylation, catalytic enhancement (BLO) (fold over background); higher = more active; k-Seq, kA / k0A0; sequences stand for … in GGGAAUGGAUCCACAUCUACGAAUUC…UUCACUGCAGACUUGACGAAGCUG
An outline of the steps: as §1

A further data set concerns biotinyl-Trp-oxazolone. Nature of the data set: self-aminoacylation, catalytic enhancement (BWO) (fold over background); higher = more active; k-Seq, kA / k0A0; sequences stand for … in GGGAAUGGAUCCACAUCUACGAAUUC…UUCACUGCAGACUUGACGAAGCUG
An outline of the steps: as §1

Variants at the floor of the assay were thinned out.

Consider “CCACACUUCAAGCCAUCUGUC [Fam1B.1 aminoacylation ribozyme variant]”, for which the self-aminoacylation with biotinyl-Phe-oxazolone came out at 0.711; in the data set on biotinyl-Ile-oxazolone, 0.493; in the data set on biotinyl-Met-oxazolone it was 0.542; with biotinyl-Val-oxazolone it was 0.72; with biotinyl-Leu-oxazolone it was 0.401; in the data set on biotinyl-Trp-oxazolone, 0.498.
For the sequence “CCACUCCAAACAAUCGGUCUG [Fam1A.1 aminoacylation ribozyme variant]”, the self-aminoacylation worked out at 4.18 in the data set with biotinyl-Phe-oxazolone; 1.11 in the data set on biotinyl-Ile-oxazolone; 1.13 in the data set with biotinyl-Met-oxazolone; 1.22 with biotinyl-Val-oxazolone; 1.09 with biotinyl-Leu-oxazolone; 3.48 in the data set on biotinyl-Trp-oxazolone.
Take “AAUACCCUGGUCAUAGAGUGA [Fam2.1 aminoacylation ribozyme variant]”: the self-aminoacylation came out at 10.7 in the data set with biotinyl-Phe-oxazolone; 2.68 in the data set with biotinyl-Ile-oxazolone; 4.64 with biotinyl-Met-oxazolone; 2.3 in the data set on biotinyl-Val-oxazolone; 4.68 in the data set with biotinyl-Leu-oxazolone; 5.58 in the data set with biotinyl-Trp-oxazolone.
As to “AUUUACCUUGGUCAUCGGGUG [Fam2.2 aminoacylation ribozyme variant]”, the self-aminoacylation with biotinyl-Phe-oxazolone is 45.7; in the data set with biotinyl-Ile-oxazolone it was 4.48; with biotinyl-Met-oxazolone, 7.16; with biotinyl-Val-oxazolone, 4.81; with biotinyl-Leu-oxazolone, 8.83; in the data set on biotinyl-Trp-oxazolone, 6.6.
Regarding “CCACACUUAAAGAAAUCGGUC [Fam1B.1 aminoacylation ribozyme variant]”, the self-aminoacylation in the data set on biotinyl-Phe-oxazolone came out at 0.562; with biotinyl-Ile-oxazolone, 0.754; with biotinyl-Met-oxazolone it was 0.734; with biotinyl-Val-oxazolone, 0.785; with biotinyl-Leu-oxazolone, 0.749; with biotinyl-Trp-oxazolone, 0.679.
Regarding “CCACAUUUCAAGCAAUCGCUC [Fam1B.1 aminoacylation ribozyme variant]”, the self-aminoacylation is 2.39 in the data set with biotinyl-Phe-oxazolone; 2.6 in the data set with biotinyl-Ile-oxazolone; 2 in the data set on biotinyl-Met-oxazolone; 2.42 with biotinyl-Val-oxazolone; 2.17 in the data set with biotinyl-Leu-oxazolone; 2.38 in the data set on biotinyl-Trp-oxazolone.
Regarding “AUUACCUUGGUCUUCGAGUGA [Fam2.1 aminoacylation ribozyme variant]”, the self-aminoacylation in the data set with biotinyl-Phe-oxazolone amounted to 32.9; in the data set on biotinyl-Ile-oxazolone, 3.43; in the data set with biotinyl-Met-oxazolone it was 6.13; in the data set on biotinyl-Val-oxazolone it was 4.04; in the data set with biotinyl-Leu-oxazolone, 6.52; with biotinyl-Trp-oxazolone, 7.78.
Take “AUUCACCUGGGUCAUCGGGGG [Fam2.2 aminoacylation ribozyme variant]”: the self-aminoacylation is 21.4 in the data set on biotinyl-Phe-oxazolone; 4.25 in the data set on biotinyl-Ile-oxazolone; 4.26 in the data set with biotinyl-Met-oxazolone; 4.1 with biotinyl-Val-oxazolone; 5.65 in the data set with biotinyl-Leu-oxazolone; 3.71 in the data set on biotinyl-Trp-oxazolone.
“CCACACUUCAAGUAAUCGUUC [Fam1B.1 aminoacylation ribozyme variant]”: the self-aminoacylation in the data set on biotinyl-Phe-oxazolone amounted to 0.886; in the data set on biotinyl-Ile-oxazolone it was 0.628; with biotinyl-Met-oxazolone, 0.613; in the data set on biotinyl-Val-oxazolone it was 0.801; in the data set on biotinyl-Leu-oxazolone, 0.705; with biotinyl-Trp-oxazolone, 0.552.
“UUUACCCUGGUAAUCGAGUGA [Fam2.1 aminoacylation ribozyme variant]”: the self-aminoacylation with biotinyl-Phe-oxazolone was 58.7; in the data set with biotinyl-Ile-oxazolone, 4.2; with biotinyl-Met-oxazolone it was 9.02; with biotinyl-Val-oxazolone, 3.97; in the data set on biotinyl-Leu-oxazolone it was 8.58; with biotinyl-Trp-oxazolone, 10.4.
Turning to “CUUCAACUAGGUCAUCGGGUG [Fam2.2 aminoacylation ribozyme variant]”, the self-aminoacylation in the data set on biotinyl-Phe-oxazolone is 31.8; with biotinyl-Ile-oxazolone, 3.17; with biotinyl-Met-oxazolone it was 5.42; in the data set with biotinyl-Val-oxazolone it was 3.22; with biotinyl-Leu-oxazolone, 6.16; in the data set with biotinyl-Trp-oxazolone it was 4.93.
“CCACACUUCAAGCAAUCGGUG [Fam1B.1 aminoacylation ribozyme variant]”: the self-aminoacylation came to 17.1 in the data set with biotinyl-Phe-oxazolone; 3.68 in the data set on biotinyl-Ile-oxazolone; 5.19 in the data set with biotinyl-Met-oxazolone; 3.68 in the data set on biotinyl-Val-oxazolone; 7.2 with biotinyl-Leu-oxazolone; 5.45 in the data set with biotinyl-Trp-oxazolone.
As to “AUUCAACUAGGUCAUUGGGUG [Fam2.2 aminoacylation ribozyme variant]”, the self-aminoacylation with biotinyl-Phe-oxazolone amounted to 23.7; in the data set with biotinyl-Ile-oxazolone, 2.3; in the data set with biotinyl-Met-oxazolone, 3.46; in the data set with biotinyl-Val-oxazolone, 2.19; in the data set with biotinyl-Leu-oxazolone, 4.71; in the data set with biotinyl-Trp-oxazolone, 3.66.
Regarding “AAGUUUGCUAAUCUUCGCAAG [Fam3.1 aminoacylation ribozyme variant]”, the self-aminoacylation in the data set with biotinyl-Phe-oxazolone came to 0.816; in the data set on biotinyl-Ile-oxazolone, 1.11; in the data set on biotinyl-Met-oxazolone, 1.07; in the data set with biotinyl-Val-oxazolone, 1.07; in the data set with biotinyl-Leu-oxazolone it was 0.95; in the data set with biotinyl-Trp-oxazolone, 1.19.
As to “CUACGUCAUACAAUCGGUCUG [Fam1A.1 aminoacylation ribozyme variant]”, the self-aminoacylation with biotinyl-Phe-oxazolone turned out to be 1.1; in the data set on biotinyl-Ile-oxazolone, 1.1; in the data set on biotinyl-Met-oxazolone, 1.1; in the data set on biotinyl-Val-oxazolone, 1.09; with biotinyl-Leu-oxazolone, 1.27; with biotinyl-Trp-oxazolone, 0.994.
As for “AUGCAGCUAGGUCAUCGGGUG [Fam2.2 aminoacylation ribozyme variant]”, the self-aminoacylation in the data set on biotinyl-Phe-oxazolone is 24.9; with biotinyl-Ile-oxazolone it was 2.95; in the data set on biotinyl-Met-oxazolone, 3.73; with biotinyl-Val-oxazolone it was 3.61; in the data set with biotinyl-Leu-oxazolone, 4.37; with biotinyl-Trp-oxazolone, 3.92.
In the case of “AUUACCUUGGUCAACGAGUGA [Fam2.1 aminoacylation ribozyme variant]”, the self-aminoacylation is 17.5 in the data set with biotinyl-Phe-oxazolone; 3.57 with biotinyl-Ile-oxazolone; 6.26 with biotinyl-Met-oxazolone; 3.54 with biotinyl-Val-oxazolone; 6 with biotinyl-Leu-oxazolone; 6.5 in the data set with biotinyl-Trp-oxazolone.
Turning to “CCACACUUCAACCAAUCGGUC [Fam1B.1 aminoacylation ribozyme variant]”, the self-aminoacylation with biotinyl-Phe-oxazolone turned out to be 60.5; in the data set with biotinyl-Ile-oxazolone it was 1.38; in the data set with biotinyl-Met-oxazolone it was 1.38; in the data set with biotinyl-Val-oxazolone, 1.5; in the data set with biotinyl-Leu-oxazolone it was 2.17; in the data set with biotinyl-Trp-oxazolone, 35.2.
With “AUUUCCCUGGUAAUCGAGUGA [Fam2.1 aminoacylation ribozyme variant]”, the self-aminoacylation in the data set with biotinyl-Phe-oxazolone was 57.7; in the data set on biotinyl-Ile-oxazolone, 3.84; with biotinyl-Met-oxazolone, 7.89; in the data set on biotinyl-Val-oxazolone, 4.01; with biotinyl-Leu-oxazolone, 8.19; with biotinyl-Trp-oxazolone, 9.31.
As to “AUUCACCUAGAUCAUCCGGUG [Fam2.2 aminoacylation ribozyme variant]”, the self-aminoacylation came out at 17.8 in the data set on biotinyl-Phe-oxazolone; 3.4 in the data set on biotinyl-Ile-oxazolone; 3.41 in the data set with biotinyl-Met-oxazolone; 3.32 in the data set on biotinyl-Val-oxazolone; 3.97 with biotinyl-Leu-oxazolone; 2.83 in the data set with biotinyl-Trp-oxazolone.
Consider “AUUACCCUGGUCAGCGAAUGA [Fam2.1 aminoacylation ribozyme variant]”, for which the self-aminoacylation with biotinyl-Phe-oxazolone stood at 0.631; in the data set with biotinyl-Ile-oxazolone, 1.05; in the data set with biotinyl-Met-oxazolone, 1.43; with biotinyl-Val-oxazolone, 1.31; in the data set on biotinyl-Leu-oxazolone it was 1.22; in the data set on biotinyl-Trp-oxazolone it was 1.38.
For the sequence “CCACACUUCAAGCAAUCUGUC [Fam1B.1 aminoacylation ribozyme variant]”, the self-aminoacylation in the data set on biotinyl-Phe-oxazolone came to 0.824; in the data set with biotinyl-Ile-oxazolone, 0.368; in the data set on biotinyl-Met-oxazolone, 0.34; in the data set with biotinyl-Val-oxazolone, 0.518; in the data set on biotinyl-Leu-oxazolone it was 0.327; in the data set with biotinyl-Trp-oxazolone it was 0.369.
In the case of “AUUACCCUGGUCAACGAGUUA [Fam2.1 aminoacylation ribozyme variant]”, the self-aminoacylation with biotinyl-Phe-oxazolone turned out to be 0.836; with biotinyl-Ile-oxazolone, 0.971; in the data set on biotinyl-Met-oxazolone it was 1.26; with biotinyl-Val-oxazolone, 0.947; in the data set on biotinyl-Leu-oxazolone, 0.662; with biotinyl-Trp-oxazolone it was 0.529.
